From patent JP2006342173A come the findings set out here.

The target in test [1] is ヒトCD40 (human CD40 expressed on cells) (human) (UniProt P25942). Briefly: cell-based or functional assay.
In test [2] the target is ヒトCD40ヒトFC (human CD40 extracellular region fused to human IgG1 FC) (human) (UniProt P25942). Briefly: SPR, BIAcore 2000; CD40 human FC immobilised on CM5; control IgG added first, then soluble CD40L 10 ug/ml; difference before and after CD40L. A general note: Surface plasmon resonance follows binding to a sensor surface in real time, without labels.

As for “5D12抗体 (mouse anti-human CD40 antibody, ATCC No.HB-11339)”, in test [1], the 扁桃腺B細胞の増殖抑制 ([3H]チミジン; flag標識CD40L+エンハンサー抗体刺激) is 50%. Substance “可溶性CD40リガンド (soluble CD40 ligand, FLAG-tagged, ALEXIS CORPORATION) (from UniProt P29965 116-261)” showed a CD40Lの結合量 (RU) in test [2] of 100 RU.
